Experimental data from patent publication US20180245061A1, “Modified Heterocyclase” (THE UNIVERSITY COURT OF THE UNIVERSITY OF ABERDEEN, priority 2014, published 2018).
Numbering of substitutions follows the chain as printed. Names may count otherwise.

How the values were obtained:
[1] = test system: full-length PatE; test: Heterocyclization of full length PatE substrate (core sequence ITVCISVC), MALDI-TOF-MS; assay type: biochemical; settings: MALDI-TOF-MS (FIG. 9)
Excerpt: Reaction Zoomed view with reaction products identified. The mass of the starting material is 6983.8 Da.

[2] = target: the molecule itself; test: X-ray crystal structures; gel filtration suggested a dimer
[3] = target: T1, PatE' L29R; test: ITC, 20 C
T1 construct: Point mutant of PatE'
T1 peptide: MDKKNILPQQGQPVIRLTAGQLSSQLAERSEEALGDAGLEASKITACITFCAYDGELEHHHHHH

[4] = target: T2, PatE' L26R; test: ITC, 20 C
T2 peptide: T1 peptide with L26R, R29L

[5] = target: T3, PatE' E31R; test: ITC, 20 C
T3 construct: Point mutant of PatE'
T3 peptide: T1 peptide with R29L, E31R

[6] = target: T4, PatE' (precursor peptide PatE variant, 64 amino acids, full leader, single core peptide ITACITFC, C-terminal …); test: ITC, 20 C, one-site model with stoichiometry set to 1; LynD in the cell, peptide in the syringe
T4 peptide: T1 peptide with R29L

[7] = target: T5, PatE' E32R; test: as above
T5 construct: Point mutant of PatE'
T5 peptide: T1 peptide with R29L, E32R

[8] = target: T6, minimal leader LAELSEEAL synthetic peptide
T6 chain: LAELSEEAL

[9] = target: T7, full-length PatE'4 leader peptide (tryptic fragment of PatE' D2Y, K3E, K4E, R16E)
T7 chain: T1 peptide with D2Y, K3E, K4E, R16E, R29L

[10] = target: T8, PatE' C51A; test: X-ray co-crystal structures LynD/ATP/PatE'C51A (2.14 A) and LynD/beta,gamma-imido-ATP/PatE'C51A (3.01 A)
T8 peptide: T1 peptide with R29L, C51A

[11] = target: PatE′ L29R; test: ITC substrate peptide binding: PatE′ L29R; settings: 10 μM enzyme, 150 μM peptide, 20° C.
Protocol: (§1) ITC experiments were performed using a VP-ITC instrument (MicroCal) in heterocyclization reaction buffer (150 mM NaCl, 10 mM HEPES pH7.4, 1 mM TCEP) supplemented with 5 mM MgCl2. For substrate binding experiments a cell solution of 10 μM LynD (and mutants) and a syringe solution of 150 μM PatE′ (and mutants) was prepared by diluting protein and peptide with the buffer used for dialysis. For nucleotide binding experiments, the cell concentration was increased to 20 μM, and the ATP/AMP concentration in the syringe solution was 300 μM. Substrate, and ATP experiments were performed at 20° C., and AMP experiments at 25° C. Cell and syringe solutions were degassed for 15 min at 18 and 23° C. Titration method was as follows: one injection of 2 μl followed by injections of 5 μl at 0.5 μl/min, with a delay of 4 min between every injection. The stirring speed was 307 rpm throughout. Raw data was processed using MicroCal Origin software, and the baseline was adjusted and the integrations limits were selected manually. Data was non-linearly fitted to the one-site model (Origin) setting the stoichiometry to 1.

[12] = test system: PatE′ E32R; test: Heterocyclization reaction with PatE′ E32R; assay type: biochemical; settings: 2 μM enzyme, 5 mM ATP, 5 mM MgCl2, 16 h at 37° C.
PatE′ E32R, sequence (as listed by the source, stated change not applied): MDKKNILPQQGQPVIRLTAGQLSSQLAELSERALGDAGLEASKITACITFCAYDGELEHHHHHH
Protocol: (§2) For all heterocyclization reactions, […] PatE′ (and variants,) was incubated with 2 μM enzyme in 150 mM NaCl, 10 mM HEPES pH 7.4, 1 mM TCEP, 5 mM ATP and 5 mM MgCl2 for 16 h at 37° C. Samples were analyzed by ESI or MALDI MS (LCT, Micromass or 4800 MALDI TOF/TOF Analyzer, ABSciex). For cis trans activation studies, 100 μM ITACITFCAYDG synthetic test peptide (Peptide Protein Research Ltd) was reacted with 5 μM heterocyclase enzyme in the presence and absence of 5.5 μM LAELSEEAL synthetic peptide, or 5.5 μM full-length PatE′4 leader peptide. The reaction was carried out in 150 mM NaCl, 10 mM HEPES pH 7.4, 1 mM TCEP, 5 mM ATP and 5 mM MgCl2 for 16 h at 37° C. and analyzed as above. Synthetic peptides were purchased from Peptide Protein Research Ltd.

[13] = test system: PatE′; test: Heterocyclization reaction with PatE′, MS analysis; assay type: biochemical; settings: 5 mM ATP, 5 mM MgCl2, 16 h at 37° C.; for No. of heterocycles, peptide PatE′: 2 μM enzyme, TABLE 2
PatE′, sequence (as listed by the source): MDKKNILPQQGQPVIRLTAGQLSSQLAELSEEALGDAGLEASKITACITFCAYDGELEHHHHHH
Protocol: as §2

[14] = test system: PatE′ L26R; test: Heterocyclization reaction with PatE′ L26R; assay type: biochemical; settings: 2 μM enzyme, 5 mM ATP, 5 mM MgCl2, 16 h at 37° C.
PatE′ L26R, sequence (as listed by the source, stated change not applied): as the sequence (as listed by the source) above, with L26R counted along it
Protocol: as §2

[15] = target: PatE′ E31R; test: ITC substrate peptide binding: PatE′ E31R; settings: 10 μM enzyme, 150 μM peptide, 20° C.
PatE′ E31R, sequence (as listed by the source, stated change not applied): as the sequence (as listed by the source) above, with E31R counted along it
Protocol: as §1

[16] = target: PatE′ L26R; test: ITC substrate peptide binding: PatE′ L26R; settings: 10 μM enzyme, 150 μM peptide, 20° C.
Protocol: as §1

[17] = target: T2, PatE' L26R; test: ITC, 20 C, one-site model with stoichiometry set to 1; LynD mutant in the cell, peptide in the syringe
[18] = target: T4, PatE' (precursor peptide PatE variant, …); test: as above
[19] = target: T4, PatE' (precursor peptide PatE variant, …); test: ITC, 20 C
[20] = target: PatE′; test: ITC substrate peptide binding: PatE′; settings: 10 μM enzyme, 150 μM peptide, 20° C.
Protocol: as §1

[21] = target: T5, PatE' E32R; test: ITC, 20 C, one-site model with stoichiometry set to 1; LynD mutant in the cell, peptide in the syringe

B1: MicD-Q21-5G: fused-MicD: leader from Q21, 5 GA repeats linker, KL, MicD (SEQ ID NO: 40) (protein)
chain: MSHHHHHHDYDENLYFQGSQLSSQLAELSEEALGDAGAGAGAGAGAKLMQSTPLLQIQPHFHVEVIEPKQVYLLGEQANYALTGQLYCQILPLLDGQHSREQIVEKLDGEVPSEYIDYVLDRLAEKGYLTEAAPELSSEVAAFWSELGIAPPVAAEALRQSVTLTPVGNISEVTVAALTTALRDIGISVQTPTEAGSPTALNVVLTDDYLQPELAKINKQALESQQTWLLVKPVGSVLWLGPVFVPGKTGCWDCLAHRLRGNREVEASVLQQKQAQQQRNGQSGSVIGCLPTARATLPSTLQTGLQFAATEIAKWIVKHHVKATAPGTVFFPTLDGKIITFNHTVIDLKSHVLVRRSQCPSCGDRQILHRQGFEPVKLVSRRKHFTHDGGHRAFTPEQTVQKYQHLVSPITGVVTELVRLTDPANPLVHTYKAGHAFGSATTLRGLRNTLKYKSSGKGKTDIQSRASGLCEAIERYSGIFQGDEPRKRATLAELGDLALHPESLLYFSNTQYANREELNAQGSAAAYRWIPNRFDVSQAIDWTPVWSLTEQKHKYVPTAFCYYGYPLPEEQRFCKADSNGNAAGNTLEEAILQGFLELVERDSIAMWWYNRIRRPAVDLSTFDEPYFVDLQQFYQQQNRELWVLDVTADLGIPAFAGFSRRTVGTSERISIGFGAHLDPTIAILRALTEVSQVGLELDKIPDDKLDGESKDWMLNVTVENHPWLAPDPSVPMKTASDYPKRWSDDIHTDVMNCVKTAQTAGLEVMVLDQTRPDIGLNVVKVIIPGMRTFWTRFGQGRLYDIPVKLGWLDAPLAEEELNQTNIPF
modifications: Modified heterocyclase MicroD_Q21_5GA
heterocyclization of full-length PatE [1]: inefficiently and produce a mixture of different heterocyclic species

B2: LynD heterocyclase, full-length (Lyngbya sp. PCC 8106) (enzyme)
chain: MQSTPLLQIQPHFHVEVIEPKQVYLLGEQANHALTGQLYCQILPLLNGQYTLEQIVEKLDGEVPPEYIDYVLERLAEKGYLTEAAPELSSEVAAFWSELGIAPPVAAEALRQPVTLTPVGNISEVTVAALTTALRDIGISVQTPTEAGSPTALNVVLTDDYLQPELAKINKQALESQQTWLLVKPVGSVLWLGPVFVPGKTGCWDCLAHRLRGNREVEASVLRQKQAQQQRNGQSGSVIGCLPTARATLPSTLQTGLQFAATEIAKWIVKYHVNATAPGTVFFPTLDGKIITLNHSILDLKSHILIKRSQCPTCGDPKILQHRGFEPLKLESRPKQFTSDGGHRGTTPEQTVQKYQHLISPVTGVVTELVRITDPANPLVHTYRAGHSFGSATSLRGLRNTLKHKSSGKGKTDSQSKASGLCEAVERYSGIFQGDEPRKRATLAELGDLAIHPEQCLCFSDGQYANRETLNEQATVAHDWIPQRFDASQAIEWTPVWSLTEQTHKYLPTALCYYHYPLPPEHRFARGDSNGNAAGNTLEEAILQGFMELVERDGVALWWYNRLRRPAVDLGSFNEPYFVQLQQFYRENDRDLWVLDLTADLGIPAFAGVSNRKTGSSERLILGFGAHLDPTIAILRAVTEVNQIGLELDKVPDENLKSDATDWLITEKLADHPYLLPDTTQPLKTAQDYPKRWSDDIYTDVMTCVNIAQQAGLETLVIDQTRPDIGLNVVKVTVPGMRHFWSRFGEGRLYDVPVKLGWLDEPLTEAQMNPTPMPF
notes: also called native LynD; cyanobactin heterocyclase LynD
binding result [2]: binds | binding result [3]: no binding | binding result [4]: no binding | binding result [5]: no binding | Kd [6]: 1.49 µM | Kd [7]: 18.4 µM | acceleration of the turnover of the test peptide […] (trans activation, MALDI TOF MS time course) [8]: 6.7- and 5.0-fold, respectively | acceleration of the turnover of the test peptide […] (trans activation, MALDI TOF MS time course) [9]: 6.7- and 5.0-fold, respectively | binding result [10]: binds

B3: LynD: full-length cyanobactin heterocyclase LynD (Lyngbya sp. PCC 8106), SEQ ID NO: 1 (protein)
chain: B2 chain
modifications: Lyngbya sp. PCC 8106
KD (μM), peptide PatE′ L29R [11]: no binding | No. of heterocycles, peptide PatE′ E32R [12]: 2 | No. of heterocycles, peptide PatE′ [13]: 2 | No. of heterocycles (PatE′) ([13]; PatE′ with 2 μM enzyme, TABLE 1): 2 | No. of heterocycles, peptide PatE′ L26R [14]: 2 | KD (μM), peptide PatE′ E31R [15]: no binding | KD (μM), peptide PatE′ L26R [16]: no binding

B4: LynD Y67D (enzyme)
chain: B2 chain with Y67D
Kd [17]: 15.2 µM | Kd [18]: 12.9 µM | No. of heterocycles, peptide PatE′ [13]: 2 | No. of heterocycles, peptide PatE′ L26R [14]: 2

B5: LynD R74E (enzyme)
chain: B2 chain with R74E
notes: Point mutant of LynD
binding result [19]: no binding | binding result [5]: no binding | KD (μM), peptide PatE′ [20]: no binding | No. of heterocycles, peptide PatE′ [13]: 2 | KD (μM), peptide PatE′ E31R [15]: no binding

B6: LynD R399E (enzyme)
chain: B2 chain with R399E
notes: Point mutant of LynD
No. of heterocycles, peptide PatE′ E32R [12]: 2 | Kd [18]: 10.7 µM | Kd [21]: 8.55 µM | No. of heterocycles, peptide PatE′ [13]: 2
